# According to patent publication US20210077638A1:
# B1: 89Zr-DFO-anti-Met single-arm comparator antibody (Comp1; Onartuzumab) (antibody, INN chains, looked up, V domains shown)
# VH: EVQLVESGGGLVQPGGSLRLSCAASGYTFTSYWLHWVRQAPGKGLEWVGMIDPSNSDTRFNPNFKDRFTISADTSKNTAYLQMNSLRAEDTAVYYCATYRSYVTPLDYWGQGTLVTVSS
# VL: DIQMTQSPSSLSASVGDRVTITCKSSQSLLYTSSQKNYLAWYQQKPGKAPKLLIYWASTRESGVPSRFSGSGSGTDFTLTISSLQPEDFATYYCQQYYAYPWTFGQGTKVEIK
# modifications: one-armed monovalent 89Zr-DFO label
# Key:
# [1] = target: human MET on EBC-1, NCI-H441 and NCI-H358 cells (human) (UniProt P08581); assay: saturation radioligand binding on NCI-H358 cells, 4 C, single-site fit, n=2
# Sequence of human MET on EBC-1, NCI-H441 and NCI-H358 cells (human) (P08581 25-1390): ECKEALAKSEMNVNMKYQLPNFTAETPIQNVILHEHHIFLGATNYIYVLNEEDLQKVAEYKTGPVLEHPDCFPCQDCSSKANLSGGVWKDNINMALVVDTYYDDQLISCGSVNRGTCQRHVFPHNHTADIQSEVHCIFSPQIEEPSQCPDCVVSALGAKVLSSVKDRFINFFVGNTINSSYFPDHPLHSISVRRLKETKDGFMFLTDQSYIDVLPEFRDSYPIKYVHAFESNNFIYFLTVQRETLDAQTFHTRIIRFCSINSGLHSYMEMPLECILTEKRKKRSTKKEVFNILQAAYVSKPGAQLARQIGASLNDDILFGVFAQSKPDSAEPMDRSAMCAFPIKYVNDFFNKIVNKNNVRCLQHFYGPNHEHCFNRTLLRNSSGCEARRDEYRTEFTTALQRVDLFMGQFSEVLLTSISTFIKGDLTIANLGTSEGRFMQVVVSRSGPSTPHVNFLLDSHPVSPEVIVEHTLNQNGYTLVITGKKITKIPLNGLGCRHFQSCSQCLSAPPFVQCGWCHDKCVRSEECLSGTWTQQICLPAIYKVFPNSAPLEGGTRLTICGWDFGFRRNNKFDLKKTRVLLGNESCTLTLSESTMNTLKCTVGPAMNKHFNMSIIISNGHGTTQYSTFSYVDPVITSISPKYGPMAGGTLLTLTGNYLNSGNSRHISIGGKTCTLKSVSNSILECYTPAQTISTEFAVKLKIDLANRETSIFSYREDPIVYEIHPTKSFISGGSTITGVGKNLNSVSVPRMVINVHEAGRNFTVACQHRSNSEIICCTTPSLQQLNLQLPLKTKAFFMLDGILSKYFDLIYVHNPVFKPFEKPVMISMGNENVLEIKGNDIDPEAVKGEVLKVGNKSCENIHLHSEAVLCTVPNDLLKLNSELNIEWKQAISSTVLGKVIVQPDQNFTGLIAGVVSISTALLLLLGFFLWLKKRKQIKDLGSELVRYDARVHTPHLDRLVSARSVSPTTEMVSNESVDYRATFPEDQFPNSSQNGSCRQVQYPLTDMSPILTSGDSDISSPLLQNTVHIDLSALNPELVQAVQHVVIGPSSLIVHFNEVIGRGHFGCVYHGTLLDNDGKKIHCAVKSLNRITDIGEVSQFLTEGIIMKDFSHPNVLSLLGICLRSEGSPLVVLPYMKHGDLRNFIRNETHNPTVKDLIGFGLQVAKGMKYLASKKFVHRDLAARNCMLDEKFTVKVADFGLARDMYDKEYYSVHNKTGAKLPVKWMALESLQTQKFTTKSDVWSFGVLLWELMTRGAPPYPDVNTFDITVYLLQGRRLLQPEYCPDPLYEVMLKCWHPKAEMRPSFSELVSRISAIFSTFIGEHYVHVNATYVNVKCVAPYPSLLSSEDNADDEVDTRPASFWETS
# [2] = target: human MET on EBC-1, NCI-H441 and NCI-H358 cells (human) (UniProt P08581); assay: saturation radioligand binding (antibody binding capacity) assay with 89Zr-DFO-Comp1 on EBC-1 cells, 4 C, 45 min, gamma counting; x axis is total antibody dosed, not free
# [3] = target: human MET on EBC-1, NCI-H441 and NCI-H358 cells (human) (UniProt P08581); assay: saturation radioligand binding on EBC-1 cells, 4 C, single-site fit, n=4
# [4] = target: human MET on EBC-1, NCI-H441 and NCI-H358 cells (human) (UniProt P08581); assay: saturation radioligand binding on NCI-H441 cells, 4 C, single-site fit, n=4
# [5] = target: human MET on EBC-1, NCI-H441 and NCI-H358 cells (human) (UniProt P08581); assay: saturation radioligand binding (antibody binding capacity) assay with 89Zr-DFO-Comp1 on NCI-H441 cells, 4 C, 45 min, gamma counting; x axis is total antibody dosed, not free
binder,measurement,setting,value
B1,ABC (antibody binding capacity),[1],21000 per cell
same,EC50 (read off the curve),[2],4 nM
same,ABC (antibody binding capacity),[3],250000 per cell
same,ABC (antibody binding capacity),[4],62000 per cell
same,EC50 (read off the curve),[5],3 nM
